Reference: IntAct's records for PubMed 31515488

B1: Notch homolog 2 N-terminal-like protein A (Homo sapiens), Q7Z3S9 (parent)
chain: MCVTYHNGTGYCKCPEGFLGEYCQHRDPCEKNRCQNGGTCVAQAMLGKATCRCASGFTGEDCQYSTSHPCFVSRPCLNGGTCHMLSRDTYECTCQVGFTGKECQWTDACLSHPCANGSTCTTVANQFSCKCLTGFTGQKCETDVNECDIPGHCQHGGTCLNLPGSYQCQCLQGFTGQYCDSLYVPCAPSPCVNGGTCRQTGDFTFECNCLPETVRRGTELWERDREVWNGKEHDEN
B2: Caspase recruitment domain-containing protein 9 (Homo sapiens), Q9H257 (parent)
chain: MSDYENDDECWSVLEGFRVTLTSVIDPSRITPYLRQCKVLNPDDEEQVLSDPNLVIRKRKVGVLLDILQRTGHKGYVAFLESLELYYPQLYKKVTGKEPARVFSMIIDASGESGLTQLLMTEVMKLQKKVQDLTALLSSKDDFIKELRVKDSLLRKHQERVQRLKEECEAGSRELKRCKEENYDLAMRLAHQSEEKGAALMRNRDLQLEIDQLKHSLMKAEDDCKVERKHTLKLRHAMEQRPSQELLWELQQEKALLQARVQELEASVQEGKLDRSSPYIQVLEEDWRQALRDHQEQANTIFSLRKDLRQGEARRLRCMEEKEMFELQCLALRKDSKMYKDRIEAILLQMEEVAIERDQAIATREELHAQHARGLQEKDALRKQVRELGEKADELQLQVFQCEAQLLAVEGRLRRQQLETLVLSSDLEDGSPRRSQELSLPQDLEDTQLSDKGCLAGGGSPKQPFAALHQEQVLRNPHDAGLSSGEPPEKERRRLKESFENYRRKRALRKMQKGWRQGEEDRENTTGSDNTDTEGS
B3: Ligand of Numb protein X 2 (Homo sapiens), Q8N448 (parent)
chain: MGTTSDEMVSVEQTSSSSLNPLCFECGQQHWTRENHLYNYQNEVDDDLVCHICLQPLLQPLDTPCGHTFCYKCLRNFLQEKDFCPLDRKRLHFKLCKKSSILVHKLLDKLLVLCPFSSVCKDVMQRCDLEAHLKNRCPGASHRRVALERRKTSRTQAEIENENGPTLLDPAGTLSPEADCLGTGAVPVERHLTSASLSTWSEEPGLDNPAFEESAGADTTQQPLSLPEGEITTIEIHRSNPYIQLGISIVGGNETPLINIVIQEVYRDGVIARDGRLLAGDQILQVNNYNISNVSHNYARAVLSQPCNTLHLTVLRERRFGNRAHNHSDSNSPREEIFQVALHKRDSGEQLGIKLVRRTDEPGVFILDLLEGGLAAQDGRLSSNDRVLAINGHDLKYGTPELAAQIIQASGERVNLTIARPGKPQPGNTIREAGNHSSSSQHHTPPPYYSRPSSHKDLTQCVTCQEKHITVKKEPHESLGMTVAGGRGSKSGELPIFVTSVPPHGCLARDGRIKRGDVLLNINGIDLTNLSHSEAVAMLKASAASPAVALKALEVQIVEEATQNAEEQPSTFSENEYDASWSPSWVMWLGLPSTLHSCHDIVLRRSYLGSWGFSIVGGYEENHTNQPFFIKTIVLGTPAYYDGRLKCGDMIVAVNGLSTVGMSHSALVPMLKEQRNKVTLTVICWPGSLV
partner: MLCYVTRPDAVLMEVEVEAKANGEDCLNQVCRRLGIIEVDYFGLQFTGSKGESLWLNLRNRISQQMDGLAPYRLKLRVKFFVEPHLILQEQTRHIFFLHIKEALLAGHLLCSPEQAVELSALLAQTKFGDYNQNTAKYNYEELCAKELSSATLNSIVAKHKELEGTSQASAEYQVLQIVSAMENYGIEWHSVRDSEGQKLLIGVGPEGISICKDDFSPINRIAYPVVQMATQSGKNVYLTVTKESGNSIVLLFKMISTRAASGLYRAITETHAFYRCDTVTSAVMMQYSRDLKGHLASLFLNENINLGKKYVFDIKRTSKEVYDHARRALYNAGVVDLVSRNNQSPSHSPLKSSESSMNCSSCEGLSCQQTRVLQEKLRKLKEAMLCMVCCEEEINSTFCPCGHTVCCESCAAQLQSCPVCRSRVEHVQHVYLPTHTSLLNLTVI
B4: Dystrobrevin beta (Homo sapiens), O60941 (parent)
chain: MIEESGNKRKTMAEKRQLFIEMRAQNFDVIRLSTYRTACKLRFVQKRCNLHLVDIWNMIEAFRDNGLNTLDHTTEISVSRLETVISSIYYQLNKRLPSTHQISVEQSISLLLNFMIAAYDSEGRGKLTVFSVKAMLATMCGGKMLDKLRYVFSQMSDSNGLMIFSKFDQFLKEVLKLPTAVFEGPSFGYTEHSVRTCFPQQRKIMLNMFLDTMMADPPPQCLVWLPLMHRLAHVENVFHPVECSYCRCESMMGFRYRCQQCHNYQLCQNCFWRGHAGGPHSNQHQMKEHSSWKSPAKKLSHAISKSLGCVPTREPPHPVFPEQPEKPLDLAHIVPPRPLTNMNDTMVSHMSSGVPTPTKRLQYSQDIPSHLADEHALIASYVARLQHCARVLDSPSRLDEEHRLIARYAARLAAEAGNVTRPPTDLSFNFDANKQQRQLIAELENKNREILQEIQRLRLEHEQASQPTPEKAQQNPTLLAELRLLRQRKDELEQRMSALQESRRELMVQLEELMKLLKEEEQKQAAQATGSPHTSPTHGGGRPMPMPVRSTSAGSTPTHCPQDSLSGVGGDVQEAFAQGTRRNLRNDLLVAADSITNTMSSLVKELHSAEEGAEEEEEKMQNGKDRG
B5: Coiled-coil domain-containing protein 33 (Homo sapiens), Q8N5R6-5 (parent)
chain: MGEPGPPSPPAPKAAPGLIDSFSEMNNYRRAMQKMAEDILSLRRQASILEGENRILRSRLAQQEEEEGQGKASEAQNTVSMKQKLLLSELDMKKLRDRVQHLQNELIRKNDREKELLLLYQAQQPQAALLKQYQGKLQKMKALEETVRHQEKVIEKMERVLEDRLQDRSKPPPLNRQQGKPYTGFPMLSASGLPLGSMGENLPVELYSVLLAENAKLRTELDKNRHQQAPIILQQQALPVDPGELGAGGDLTERLQETHGPGHSECTETLPAQDLLSGTSDKFNLLAKLEHAQSRILSLESQLEDSARRWGREKQDLATRLQEQEKGFRHPSNSIIIEQPVSDPPGVAPRGSGGGAGSHRTPKVTGP
partner: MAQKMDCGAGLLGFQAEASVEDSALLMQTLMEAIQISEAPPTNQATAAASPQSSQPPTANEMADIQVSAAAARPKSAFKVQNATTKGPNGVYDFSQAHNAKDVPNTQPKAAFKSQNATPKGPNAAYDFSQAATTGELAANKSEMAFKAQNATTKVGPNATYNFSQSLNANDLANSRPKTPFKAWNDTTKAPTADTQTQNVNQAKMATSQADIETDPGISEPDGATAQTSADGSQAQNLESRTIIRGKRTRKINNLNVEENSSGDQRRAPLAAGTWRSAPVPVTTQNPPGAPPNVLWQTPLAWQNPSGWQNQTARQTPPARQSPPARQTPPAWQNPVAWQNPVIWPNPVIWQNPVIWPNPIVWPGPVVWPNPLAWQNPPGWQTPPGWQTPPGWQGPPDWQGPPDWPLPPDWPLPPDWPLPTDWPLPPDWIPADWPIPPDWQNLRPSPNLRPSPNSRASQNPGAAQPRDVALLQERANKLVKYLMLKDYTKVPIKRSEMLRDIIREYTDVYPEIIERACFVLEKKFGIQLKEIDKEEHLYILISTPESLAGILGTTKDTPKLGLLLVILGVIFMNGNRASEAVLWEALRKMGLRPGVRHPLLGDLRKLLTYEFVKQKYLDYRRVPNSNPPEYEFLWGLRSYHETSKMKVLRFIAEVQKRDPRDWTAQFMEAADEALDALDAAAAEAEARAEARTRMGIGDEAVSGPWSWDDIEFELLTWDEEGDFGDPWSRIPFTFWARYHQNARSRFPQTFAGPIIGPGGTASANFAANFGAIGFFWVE
B6: Ligand of Numb protein X 2 (Homo sapiens), Q8N448 (parent)
chain: B3 chain
partner: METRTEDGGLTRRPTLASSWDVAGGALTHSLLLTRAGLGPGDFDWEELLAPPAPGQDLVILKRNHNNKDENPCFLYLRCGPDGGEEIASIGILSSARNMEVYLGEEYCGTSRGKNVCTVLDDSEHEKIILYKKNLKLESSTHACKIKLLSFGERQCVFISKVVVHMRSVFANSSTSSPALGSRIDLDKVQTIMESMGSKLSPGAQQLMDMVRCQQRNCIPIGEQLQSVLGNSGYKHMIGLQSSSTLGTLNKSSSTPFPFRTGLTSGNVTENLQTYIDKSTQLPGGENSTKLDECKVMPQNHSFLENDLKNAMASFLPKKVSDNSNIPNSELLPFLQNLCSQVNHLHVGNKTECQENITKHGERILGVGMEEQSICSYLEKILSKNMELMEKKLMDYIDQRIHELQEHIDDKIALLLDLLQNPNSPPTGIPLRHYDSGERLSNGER

Variants of: B1
Conditions: with pde9a_human PDE9A

Variant	effect of a mutation on the interaction
A115T	with no effect

Variants of: B1
Conditions: with ppbi_human ALPI

Variant	effect of a mutation on the interaction
A115T	with no effect

Variants of: B1
Conditions: with snai1_human SNAI1, O95863
Chain of snai1_human SNAI1, O95863 (O95863 whole entry): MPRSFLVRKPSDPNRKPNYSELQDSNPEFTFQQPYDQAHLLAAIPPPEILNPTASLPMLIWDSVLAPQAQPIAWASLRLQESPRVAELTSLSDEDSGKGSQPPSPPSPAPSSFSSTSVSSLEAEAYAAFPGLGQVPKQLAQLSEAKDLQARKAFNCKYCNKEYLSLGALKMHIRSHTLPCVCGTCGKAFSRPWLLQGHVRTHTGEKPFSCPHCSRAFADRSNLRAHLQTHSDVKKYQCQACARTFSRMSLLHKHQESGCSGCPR

Variant	effect of a mutation on the interaction
A115T	with no effect

Variants of: B1
Conditions: with anfb_human NPPB

Variant	effect of a mutation on the interaction
A115T	with no effect

Variants of: B1
Conditions: with adck5_human ADCK5, Q3MIX3
Chain of adck5_human ADCK5, Q3MIX3 (Q3MIX3 whole entry): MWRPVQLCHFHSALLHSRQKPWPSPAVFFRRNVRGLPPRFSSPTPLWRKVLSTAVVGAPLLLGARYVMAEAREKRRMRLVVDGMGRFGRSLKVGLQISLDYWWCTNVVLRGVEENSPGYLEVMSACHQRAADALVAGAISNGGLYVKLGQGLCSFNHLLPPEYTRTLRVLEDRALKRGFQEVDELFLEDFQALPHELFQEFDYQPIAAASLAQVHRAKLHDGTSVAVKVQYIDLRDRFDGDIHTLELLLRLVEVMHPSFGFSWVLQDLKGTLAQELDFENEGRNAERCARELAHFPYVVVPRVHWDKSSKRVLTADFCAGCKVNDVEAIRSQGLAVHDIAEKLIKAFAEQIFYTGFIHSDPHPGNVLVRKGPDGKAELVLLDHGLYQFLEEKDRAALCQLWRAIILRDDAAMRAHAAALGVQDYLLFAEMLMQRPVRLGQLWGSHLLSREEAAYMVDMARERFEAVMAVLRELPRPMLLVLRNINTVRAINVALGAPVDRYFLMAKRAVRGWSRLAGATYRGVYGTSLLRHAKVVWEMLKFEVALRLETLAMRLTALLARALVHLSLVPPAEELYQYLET

Variant	effect of a mutation on the interaction
A115T	with no effect

Variants of: B1
Conditions: with catz_human CTSZ

Variant	effect of a mutation on the interaction
A115T	with no effect

Variants of: B1
Conditions: with txnd5_human TXNDC5, Q8NBS9

Variant	effect of a mutation on the interaction
A115T	with no effect

Variants of: B1
Conditions: with trpv6_human TRPV6, Q9H1D0
Chain of trpv6_human TRPV6, Q9H1D0 (Q9H1D0 whole entry): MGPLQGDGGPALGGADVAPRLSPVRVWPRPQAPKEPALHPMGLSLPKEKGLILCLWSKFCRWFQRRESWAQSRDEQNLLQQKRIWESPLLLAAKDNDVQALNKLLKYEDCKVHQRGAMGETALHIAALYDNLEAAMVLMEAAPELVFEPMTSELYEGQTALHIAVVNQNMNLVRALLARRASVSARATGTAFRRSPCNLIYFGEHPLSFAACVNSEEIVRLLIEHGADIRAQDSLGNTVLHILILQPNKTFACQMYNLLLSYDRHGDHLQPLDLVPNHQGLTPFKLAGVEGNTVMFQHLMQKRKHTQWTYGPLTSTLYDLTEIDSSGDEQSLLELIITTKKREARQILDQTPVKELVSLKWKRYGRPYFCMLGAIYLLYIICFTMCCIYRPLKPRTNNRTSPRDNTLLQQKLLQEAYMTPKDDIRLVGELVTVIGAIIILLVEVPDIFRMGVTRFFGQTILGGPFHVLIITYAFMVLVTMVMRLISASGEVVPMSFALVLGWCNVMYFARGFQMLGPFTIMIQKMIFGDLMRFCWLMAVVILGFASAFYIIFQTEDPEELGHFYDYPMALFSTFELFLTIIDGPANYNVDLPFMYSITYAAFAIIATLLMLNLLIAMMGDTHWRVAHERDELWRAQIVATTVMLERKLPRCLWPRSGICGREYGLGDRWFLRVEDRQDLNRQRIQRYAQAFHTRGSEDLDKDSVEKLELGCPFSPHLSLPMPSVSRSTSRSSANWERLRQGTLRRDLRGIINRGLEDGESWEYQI

Variant	effect of a mutation on the interaction
A115T	with no effect

Variants of: B1
Conditions: with ptn23_human PTPN23, Q9H3S7
Chain of ptn23_human PTPN23, Q9H3S7 (Q9H3S7 whole entry): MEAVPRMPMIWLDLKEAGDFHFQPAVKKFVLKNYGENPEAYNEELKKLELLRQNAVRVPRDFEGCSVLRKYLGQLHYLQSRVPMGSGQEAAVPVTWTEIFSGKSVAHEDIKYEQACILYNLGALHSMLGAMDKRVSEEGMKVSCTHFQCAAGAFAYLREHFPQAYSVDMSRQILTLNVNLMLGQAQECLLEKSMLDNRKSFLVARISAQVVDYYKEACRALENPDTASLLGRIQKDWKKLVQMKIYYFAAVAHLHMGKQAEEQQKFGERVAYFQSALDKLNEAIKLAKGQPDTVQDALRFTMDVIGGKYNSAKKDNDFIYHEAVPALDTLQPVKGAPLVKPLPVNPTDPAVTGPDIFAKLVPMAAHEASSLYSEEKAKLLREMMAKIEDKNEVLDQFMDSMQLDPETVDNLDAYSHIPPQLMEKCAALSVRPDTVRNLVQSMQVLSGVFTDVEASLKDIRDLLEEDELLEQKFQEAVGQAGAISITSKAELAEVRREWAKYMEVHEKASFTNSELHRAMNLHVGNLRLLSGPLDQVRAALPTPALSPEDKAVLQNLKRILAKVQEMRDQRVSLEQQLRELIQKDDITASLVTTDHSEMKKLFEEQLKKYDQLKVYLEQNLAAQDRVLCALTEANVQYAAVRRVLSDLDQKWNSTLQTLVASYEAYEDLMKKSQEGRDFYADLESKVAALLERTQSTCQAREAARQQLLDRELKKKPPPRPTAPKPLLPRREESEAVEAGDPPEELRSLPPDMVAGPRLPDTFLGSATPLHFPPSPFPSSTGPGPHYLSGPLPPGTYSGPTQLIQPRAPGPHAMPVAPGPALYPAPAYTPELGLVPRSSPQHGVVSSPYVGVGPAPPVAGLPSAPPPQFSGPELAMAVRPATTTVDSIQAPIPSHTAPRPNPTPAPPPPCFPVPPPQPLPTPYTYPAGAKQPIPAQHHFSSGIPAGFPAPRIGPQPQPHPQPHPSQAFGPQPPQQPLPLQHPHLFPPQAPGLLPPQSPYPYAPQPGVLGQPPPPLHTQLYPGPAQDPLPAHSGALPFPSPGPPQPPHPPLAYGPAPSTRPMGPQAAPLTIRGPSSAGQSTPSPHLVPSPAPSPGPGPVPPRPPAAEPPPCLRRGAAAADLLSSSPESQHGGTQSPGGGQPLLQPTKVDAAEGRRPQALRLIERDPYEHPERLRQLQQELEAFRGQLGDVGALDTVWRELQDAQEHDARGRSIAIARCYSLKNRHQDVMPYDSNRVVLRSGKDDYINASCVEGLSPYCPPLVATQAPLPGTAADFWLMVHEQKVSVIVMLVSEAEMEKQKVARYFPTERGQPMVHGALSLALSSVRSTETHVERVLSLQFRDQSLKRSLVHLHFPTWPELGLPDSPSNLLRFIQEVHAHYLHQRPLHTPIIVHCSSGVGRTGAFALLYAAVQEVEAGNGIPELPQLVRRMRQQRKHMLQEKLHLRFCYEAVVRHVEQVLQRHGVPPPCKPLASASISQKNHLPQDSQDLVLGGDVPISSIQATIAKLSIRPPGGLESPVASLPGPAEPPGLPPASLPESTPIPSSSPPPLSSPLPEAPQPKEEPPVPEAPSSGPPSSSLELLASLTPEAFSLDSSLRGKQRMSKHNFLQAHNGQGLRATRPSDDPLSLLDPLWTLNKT

Variant	effect of a mutation on the interaction
A115T	with no effect

Variants of: B1
Conditions: with gata2_human GATA2, P23769

Variant	effect of a mutation on the interaction
A115T	with no effect

Variants of: B1
Conditions: with hbaz_human HBZ

Variant	effect of a mutation on the interaction
A115T	with no effect

Variants of: B1
Conditions: with nect3_human NECTIN3, Q9NQS3

Variant	effect of a mutation on the interaction
A115T	with no effect

Variants of: B1
Conditions: with itb2_human ITGB2, P05107

Variant	effect of a mutation on the interaction
A115T	with no effect

Variants of: B1
Conditions: with cd5r1_human CDK5R1, Q15078

Variant	effect of a mutation on the interaction
A115T	with no effect

Variants of: B1
Conditions: with uxt_human UXT

Variant	effect of a mutation on the interaction
A115T	with no effect

Variants of: B1
Conditions: with yipf3_human YIPF3, Q9GZM5

Variant	effect of a mutation on the interaction
A115T	with no effect

Variants of: B1
Conditions: with thms2_human THEMIS2, Q5TEJ8
Chain of thms2_human THEMIS2, Q5TEJ8 (Q5TEJ8 whole entry): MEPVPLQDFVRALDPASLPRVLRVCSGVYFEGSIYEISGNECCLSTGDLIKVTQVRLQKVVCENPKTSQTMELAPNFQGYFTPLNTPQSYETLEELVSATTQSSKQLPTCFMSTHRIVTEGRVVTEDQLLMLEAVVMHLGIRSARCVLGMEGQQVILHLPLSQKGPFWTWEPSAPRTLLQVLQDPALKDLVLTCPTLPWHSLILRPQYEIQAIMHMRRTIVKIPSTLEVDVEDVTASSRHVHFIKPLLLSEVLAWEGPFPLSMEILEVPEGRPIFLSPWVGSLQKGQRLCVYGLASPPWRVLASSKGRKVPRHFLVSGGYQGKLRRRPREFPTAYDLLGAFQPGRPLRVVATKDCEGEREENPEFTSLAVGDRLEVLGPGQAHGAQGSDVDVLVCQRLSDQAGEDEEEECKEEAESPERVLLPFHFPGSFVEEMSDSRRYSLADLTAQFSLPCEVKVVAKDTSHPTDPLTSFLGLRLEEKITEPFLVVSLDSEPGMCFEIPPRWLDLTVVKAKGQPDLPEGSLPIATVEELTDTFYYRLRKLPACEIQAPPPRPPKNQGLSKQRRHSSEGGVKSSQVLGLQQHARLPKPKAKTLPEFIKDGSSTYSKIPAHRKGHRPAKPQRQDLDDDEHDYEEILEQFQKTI

Variant	effect of a mutation on the interaction
A115T	with no effect

Variants of: B1
Conditions: with bmp7_human BMP7, P18075

Variant	effect of a mutation on the interaction
A115T	with no effect

Variants of: B1
Conditions: with cxcl5_human CXCL5, P42830
Chain of cxcl5_human CXCL5, P42830 (P42830 whole entry): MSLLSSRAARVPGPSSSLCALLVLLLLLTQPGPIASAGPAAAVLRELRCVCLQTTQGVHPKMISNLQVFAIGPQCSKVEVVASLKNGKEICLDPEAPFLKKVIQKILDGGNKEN

Variant	effect of a mutation on the interaction
A115T	with no effect

Variants of: B2
Conditions: with tri23_human TRIM23, P36406

Variant	effect of a mutation on the interaction
MSDYENDDECWSVLEGFRVTLTSVIDPSRITPYLRQCKVLNPDDEEQVLSDPNLVIRKRKVGVLLDILQRTGHKGYVAFLESLELYYPQLYKKVTGKEPARVFSMIIDASGESGLTQLLMTEVMKLQKKVQDLTALLSSKDDFIKELRVKDSLLRKHQERVQRLKEECEAGSHELKRCKEENYDLAMRLAHQSEEKGAALMRNRDLQLEIDQLKHSLMKAEDDCKVERKHTLKLRHAMEQRPSQELLWELQQEKALLQARVQELEASVQEGKLDRSSPYIQVLEEDWRQALRDHQEQANTIFSLRKDLRQGEARRLRCMEEKEMFELQCLALRKDSKMYKDRIEAILLQMEEVAIERDQAIATREELHAQHARGLQEKDALRKQVRELGEKADELQLQVFQCEAQLLAVEGRLRRQQLETLVLSSDLEDGSPRRSQELSLPQDLEDTQLSDKGCLAGGGSPKQPFAALHQEQVLRNPHDAGLSSGEPPEKERRRLKESFENYRRKRALRKMQKGWRQGEEDRENTTGSDNTDTEGS [R173H]	with no effect

Variants of: B2
Conditions: with KRT19, P08727

Variant	effect of a mutation on the interaction
MSDYENDDECWSVLEGFRVTLTSVIDPSRITPYLRQCKVLNPDDEEQVLSDPNLVIRKRKVGVLLDILQRTGHKGYVAFLESLELYYPQLYKKVTGKEPARVFSMIIDASGESGLTQLLMTEVMKLQKKVQDLTALLSSKDDFIKELRVKDSLLRKHQERVQRLKEECEAGSHELKRCKEENYDLAMRLAHQSEEKGAALMRNRDLQLEIDQLKHSLMKAEDDCKVERKHTLKLRHAMEQRPSQELLWELQQEKALLQARVQELEASVQEGKLDRSSPYIQVLEEDWRQALRDHQEQANTIFSLRKDLRQGEARRLRCMEEKEMFELQCLALRKDSKMYKDRIEAILLQMEEVAIERDQAIATREELHAQHARGLQEKDALRKQVRELGEKADELQLQVFQCEAQLLAVEGRLRRQQLETLVLSSDLEDGSPRRSQELSLPQDLEDTQLSDKGCLAGGGSPKQPFAALHQEQVLRNPHDAGLSSGEPPEKERRRLKESFENYRRKRALRKMQKGWRQGEEDRENTTGSDNTDTEGS [R173H]	with no effect

Variants of: B3
Conditions: with mylip_human MYLIP

Variant	effect of a mutation on the interaction
S198P	with no effect

Variants of: B4
Conditions: with cep63_human CEP63, Q96MT8

Variant	effect of a mutation on the interaction
R80H	with no effect

Variants of: B4
Conditions: with traf2_human TRAF2, Q12933
Chain of traf2_human TRAF2, Q12933 (Q12933 whole entry): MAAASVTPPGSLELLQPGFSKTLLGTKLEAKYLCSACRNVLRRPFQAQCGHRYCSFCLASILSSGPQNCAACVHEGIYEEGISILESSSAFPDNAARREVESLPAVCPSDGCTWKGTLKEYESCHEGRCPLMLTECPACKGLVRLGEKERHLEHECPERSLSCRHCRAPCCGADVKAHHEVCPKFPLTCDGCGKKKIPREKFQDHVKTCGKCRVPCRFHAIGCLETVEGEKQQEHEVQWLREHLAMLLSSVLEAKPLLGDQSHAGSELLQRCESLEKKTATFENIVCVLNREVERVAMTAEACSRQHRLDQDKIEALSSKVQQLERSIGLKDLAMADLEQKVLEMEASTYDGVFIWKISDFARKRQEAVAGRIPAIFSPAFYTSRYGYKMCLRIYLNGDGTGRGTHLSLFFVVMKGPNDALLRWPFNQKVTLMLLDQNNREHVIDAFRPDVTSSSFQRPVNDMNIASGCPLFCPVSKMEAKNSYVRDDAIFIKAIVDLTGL

Variant	effect of a mutation on the interaction
R80H	with no effect
S396G	with no effect

Variants of: B4
Conditions: with tera_human VCP

Variant	effect of a mutation on the interaction
R80H	with no effect
S396G	with no effect

Variants of: B4
Conditions: with abi2_human ABI2, Q9NYB9
Chain of abi2_human ABI2, Q9NYB9 (Q9NYB9 whole entry): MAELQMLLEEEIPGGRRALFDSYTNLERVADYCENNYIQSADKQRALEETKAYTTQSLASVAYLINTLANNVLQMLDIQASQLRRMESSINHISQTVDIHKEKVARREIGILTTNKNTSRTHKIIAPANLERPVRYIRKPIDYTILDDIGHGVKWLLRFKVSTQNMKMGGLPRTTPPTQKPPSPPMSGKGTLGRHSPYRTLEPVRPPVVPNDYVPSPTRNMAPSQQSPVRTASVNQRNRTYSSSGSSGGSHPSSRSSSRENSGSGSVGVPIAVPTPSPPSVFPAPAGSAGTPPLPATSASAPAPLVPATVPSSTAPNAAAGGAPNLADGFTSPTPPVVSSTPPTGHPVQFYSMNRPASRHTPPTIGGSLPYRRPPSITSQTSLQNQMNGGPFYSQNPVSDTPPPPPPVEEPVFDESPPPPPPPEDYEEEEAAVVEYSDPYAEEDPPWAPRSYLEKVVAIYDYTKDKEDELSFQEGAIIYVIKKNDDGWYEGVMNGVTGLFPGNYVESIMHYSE

Variant	effect of a mutation on the interaction
R80H	with no effect

Variants of: B4
Conditions: with lipa1_human PPFIA1, Q13136

Variant	effect of a mutation on the interaction
S396G	with no effect

Variants of: B4
Conditions: with dmd_human DMD

Variant	effect of a mutation on the interaction
S396G	with no effect

Variants of: B5
Conditions: with magd1_human MAGED1, Q9Y5V3

Variant	effect of a mutation on the interaction
G196R	with no effect
P203L	with no effect
R30L	with no effect

Variants of: B6
Conditions: with paat_human PAAT

Variant	effect of a mutation on the interaction
T183I	with no effect
V145I	with no effect
